Measurements taken from the RNAGym collection of RNA variant scans (doi:10.1073/pnas.2313332121).
Variants at the floor of the assay were thinned out.

B1: TPR 5TU (parent)
chain: GGAUCUUCUCGAUCUAACAAAAAAGACAAAUCUGCCACAAAGCUUGAGAGCAUCUUCGGAUGCAGAGGCGGCAGCCUUCGGUGGCGCGAUAGCGCCAACGUUCUCAACUAUGACACGCAAAACGCGUGCUCCGUUGAAUGGAGUUUAUCAUG

Variants of: B1
Experiment: polymerase ribozyme fitness, log enrichment relative to wild type (log ratio); higher = more active; in vitro selection for triplet polymerase activity
How it was run: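 Frozen incubation at −7 °C formed the core of a single, triplicate in vitro selection round applied to PCR-built, transcribed mutant libraries of each subunit of a heterodimeric triplet polymerase ribozyme. Extended constructs were gel-excised, captured with streptavidin beads and amplified by RT-PCR, and input and output libraries were Illumina-sequenced with a filter of ≥10 input reads and ≥1 read per output. Fitness is the logarithm of genotype enrichment relative to wild-type enrichment, with inverse-variance-weighted replicate averaging, and the logarithm is base 2.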

Question: With A16G A49U G62A G92A C96A as the variant, how does the “polymerase ribozyme fitness (log ratio)” value read?
Answer: ≤ -4.2

Question: For A16G C27G G70C C87U A119U G133C G143A, which “polymerase ribozyme fitness (log ratio)” value is on record?
Answer: ≤ -4.2

Question: For U15A C18G C27U U55A G86A C96G U104A A150G, which “polymerase ribozyme fitness (log ratio)” value is on record?
Answer: ≤ -4.2

Question: For A16U A41U G59A C116G C129U A150G, which “polymerase ribozyme fitness (log ratio)” value is on record?
Answer: ≤ -4.2

Question: With U15C C93U as the variant, how does the “polymerase ribozyme fitness (log ratio)” value read?
Answer: -0.331

Question: For A17C C27U G71A C93G A113C U134G U151G, which “polymerase ribozyme fitness (log ratio)” value is on record?
Answer: ≤ -4.2

Question: For A17G A28U C32U A39U C57A C95A A110G U144C A147G A150C, which “polymerase ribozyme fitness (log ratio)” value is on record?
Answer: ≤ -4.2

Question: With C14U G83U C95U C116U as the variant, how does the “polymerase ribozyme fitness (log ratio)” value read?
Answer: -1.49

Question: With A16U G71A A73G C93U A113C C118A G140A as the variant, how does the “polymerase ribozyme fitness (log ratio)” value read?
Answer: ≤ -4.2

Question: With U15G G59A G83U C118G as the variant, how does the “polymerase ribozyme fitness (log ratio)” value read?
Answer: -1.13

Question: Which “polymerase ribozyme fitness (log ratio)” value does the source give for A16G U31C C51U U53G C125A G140C here?
Answer: ≤ -4.2

Question: Which “polymerase ribozyme fitness (log ratio)” value does the source give for A16G C18U U31G C35A C43A C95G C103U here?
Answer: ≤ -4.2

Question: Which “polymerase ribozyme fitness (log ratio)” value does the source give for A16G C76U C79A G83U G152U here?
Answer: ≤ -4.2

Question: For A17C C76U G92U C129A, which “polymerase ribozyme fitness (log ratio)” value is on record?
Answer: -3.05

Question: Which “polymerase ribozyme fitness (log ratio)” value does the source give for U15A C38U C54U C95G G141A here?
Answer: -1.16

Question: Which “polymerase ribozyme fitness (log ratio)” value does the source give for U15G A39U C43U G50C G94A here?
Answer: ≤ -4.2

Question: With A17C C36U A52C G80U G84C A107U U144C as the variant, how does the “polymerase ribozyme fitness (log ratio)” value read?
Answer: ≤ -4.2

Question: For U15A U55A G59A, which “polymerase ribozyme fitness (log ratio)” value is on record?
Answer: 0.845

Question: For U15G A21C A26U C38G G92A A113C, which “polymerase ribozyme fitness (log ratio)” value is on record?
Answer: ≤ -4.2

Question: For A16G A19G A23U A26C U44A U53A C87G C103A, which “polymerase ribozyme fitness (log ratio)” value is on record?
Answer: -4.11

Question: With A17G C27U A49U C79A G83U C87U A120U as the variant, how does the “polymerase ribozyme fitness (log ratio)” value read?
Answer: ≤ -4.2

Question: Which “polymerase ribozyme fitness (log ratio)” value does the source give for A16C C36G G92A C108A A113G U139A here?
Answer: ≤ -4.2

Question: With U15C A23G U82A C93G G126A as the variant, how does the “polymerase ribozyme fitness (log ratio)” value read?
Answer: -4.14

Question: For A16C C72U U82A C85U A91U, which “polymerase ribozyme fitness (log ratio)” value is on record?
Answer: ≤ -4.2

Question: For A17G C18U A40C C99G, which “polymerase ribozyme fitness (log ratio)” value is on record?
Answer: -3.19

Question: With A16C U33A C54A C85A A91G C125G G133U as the variant, how does the “polymerase ribozyme fitness (log ratio)” value read?
Answer: ≤ -4.2

Question: Which “polymerase ribozyme fitness (log ratio)” value does the source give for A16G A110G here?
Answer: -3.77

Question: With U15G C32A G88A A97G as the variant, how does the “polymerase ribozyme fitness (log ratio)” value read?
Answer: ≤ -4.2

Question: Which “polymerase ribozyme fitness (log ratio)” value does the source give for U15G G59U U135G here?
Answer: -3.96

Question: For U15G A24U G25C C38G C54G C76G G81C C93A C132U, which “polymerase ribozyme fitness (log ratio)” value is on record?
Answer: ≤ -4.2

Question: For A17G C38G C51A U78G U90G C131A, which “polymerase ribozyme fitness (log ratio)” value is on record?
Answer: ≤ -4.2

Question: With A16C C51U C87G C118G G133U as the variant, how does the “polymerase ribozyme fitness (log ratio)” value read?
Answer: ≤ -4.2

Question: For A17G C93A A106G, which “polymerase ribozyme fitness (log ratio)” value is on record?
Answer: -1.94

Question: For A17C C18G A26U A41C U45G A49U U55A G62A G92U C108U C118U, which “polymerase ribozyme fitness (log ratio)” value is on record?
Answer: ≤ -4.2

Question: Which “polymerase ribozyme fitness (log ratio)” value does the source give for A16U C35A G74A G80C G83U G86A A97U here?
Answer: ≤ -4.2

Question: Which “polymerase ribozyme fitness (log ratio)” value does the source give for C14U G83C A106C here?
Answer: -2.96

Question: With A16C C18G U45G U61G as the variant, how does the “polymerase ribozyme fitness (log ratio)” value read?
Answer: ≤ -4.2

Question: Which “polymerase ribozyme fitness (log ratio)” value does the source give for A17C A40G here?
Answer: -1.63

Question: Which “polymerase ribozyme fitness (log ratio)” value does the source give for A16U A37U A52C G112U U139A here?
Answer: ≤ -4.2

Question: With A17C G81U C85A C95U C105G as the variant, how does the “polymerase ribozyme fitness (log ratio)” value read?
Answer: -1.64

Question: With U15G A22G U56G C96U A121U as the variant, how does the “polymerase ribozyme fitness (log ratio)” value read?
Answer: -0.722

Question: With A16U A64U A66C C93G as the variant, how does the “polymerase ribozyme fitness (log ratio)” value read?
Answer: ≤ -4.2

Question: Which “polymerase ribozyme fitness (log ratio)” value does the source give for A16U A47C U53A C85G C131A U134A G140U here?
Answer: ≤ -4.2

Question: With U15C A24G A39G G83A C99G as the variant, how does the “polymerase ribozyme fitness (log ratio)” value read?
Answer: ≤ -4.2

Question: With U15C A37U G46U G84U U148C as the variant, how does the “polymerase ribozyme fitness (log ratio)” value read?
Answer: ≤ -4.2

Question: With U15C U56A C79A G80U C96U C103A A107C U146A as the variant, how does the “polymerase ribozyme fitness (log ratio)” value read?
Answer: ≤ -4.2

Question: For A17C A30G C95G, which “polymerase ribozyme fitness (log ratio)” value is on record?
Answer: -3.8

Question: For A17G A24C A41U A91U A98G, which “polymerase ribozyme fitness (log ratio)” value is on record?
Answer: ≤ -4.2

Question: With A17C G68A G83A C116A G128A as the variant, how does the “polymerase ribozyme fitness (log ratio)” value read?
Answer: ≤ -4.2

Question: For C14U U15G A41C A49C C54G C75G C96U C123A A137U G141A G143C, which “polymerase ribozyme fitness (log ratio)” value is on record?
Answer: ≤ -4.2

Question: With A17C A60U G81U G83U G86U C93A as the variant, how does the “polymerase ribozyme fitness (log ratio)” value read?
Answer: -0.433

Question: With A16U C32G G34A C85G U90G A97G U134G G141C as the variant, how does the “polymerase ribozyme fitness (log ratio)” value read?
Answer: ≤ -4.2

Question: Which “polymerase ribozyme fitness (log ratio)” value does the source give for U15C U61A A89G A98G here?
Answer: -1.62

Question: For U15G C57G C93A C99G, which “polymerase ribozyme fitness (log ratio)” value is on record?
Answer: -4.06

Question: For A17G A19U, which “polymerase ribozyme fitness (log ratio)” value is on record?
Answer: 0.00969

Question: With U15G U44G A73C G74U G80C C93U G141C as the variant, how does the “polymerase ribozyme fitness (log ratio)” value read?
Answer: ≤ -4.2

Question: Which “polymerase ribozyme fitness (log ratio)” value does the source give for A16G A40C A119C U127C here?
Answer: -3.55

Question: With A16G G80A as the variant, how does the “polymerase ribozyme fitness (log ratio)” value read?
Answer: -0.775

Question: For A17G A26C A40U A47C G59A G68A U109G C116G A119C, which “polymerase ribozyme fitness (log ratio)” value is on record?
Answer: ≤ -4.2

Question: For U15G C35U A41C A115G U145G, which “polymerase ribozyme fitness (log ratio)” value is on record?
Answer: -4.04

Question: Which “polymerase ribozyme fitness (log ratio)” value does the source give for A16C G50A C85U here?
Answer: -3.26

Question: With A16G U33G C95G as the variant, how does the “polymerase ribozyme fitness (log ratio)” value read?
Answer: ≤ -4.2

Question: With U15G G152U as the variant, how does the “polymerase ribozyme fitness (log ratio)” value read?
Answer: -2.98

Question: Which “polymerase ribozyme fitness (log ratio)” value does the source give for U15G A24U A60G G92U here?
Answer: 0.475

Question: Which “polymerase ribozyme fitness (log ratio)” value does the source give for A16U C27G A89G G92U C149G here?
Answer: ≤ -4.2

Question: Which “polymerase ribozyme fitness (log ratio)” value does the source give for A17G C38U C57A C63A A115G U144A here?
Answer: -1.28

Question: With U15G C95U U104G U144A as the variant, how does the “polymerase ribozyme fitness (log ratio)” value read?
Answer: -0.599

Question: With U15C C27U U53A A122G as the variant, how does the “polymerase ribozyme fitness (log ratio)” value read?
Answer: -1.39

Question: With A16G A22U C85G G92A C93G C108G A113U G117C as the variant, how does the “polymerase ribozyme fitness (log ratio)” value read?
Answer: ≤ -4.2

Question: With U15C A20U C54U G86U as the variant, how does the “polymerase ribozyme fitness (log ratio)” value read?
Answer: -1.77

Question: For U15C G74C G94C, which “polymerase ribozyme fitness (log ratio)” value is on record?
Answer: -4.1

Question: For A16C A17G C76G C96A A107G, which “polymerase ribozyme fitness (log ratio)” value is on record?
Answer: ≤ -4.2

Question: With A16C G83U as the variant, how does the “polymerase ribozyme fitness (log ratio)” value read?
Answer: -1.56

Question: Which “polymerase ribozyme fitness (log ratio)” value does the source give for A17G here?
Answer: 0.0905

Question: For A17C, which “polymerase ribozyme fitness (log ratio)” value is on record?
Answer: 0.315

Question: With A16U G25C C72G C76G C96U A107U A115G C129U as the variant, how does the “polymerase ribozyme fitness (log ratio)” value read?
Answer: ≤ -4.2

Question: For U15A A20U, which “polymerase ribozyme fitness (log ratio)” value is on record?
Answer: -0.122

Question: Which “polymerase ribozyme fitness (log ratio)” value does the source give for U15A A47C C54G A115G U127C U146A here?
Answer: -1.14

Question: With C14U G84A as the variant, how does the “polymerase ribozyme fitness (log ratio)” value read?
Answer: -1.56

Question: Which “polymerase ribozyme fitness (log ratio)” value does the source give for A16U A22C A30U U55A C57A C76G G81U G84C here?
Answer: ≤ -4.2

Question: For A16G A17C A21U A29G U55A C57G A91C C103U U145A, which “polymerase ribozyme fitness (log ratio)” value is on record?
Answer: ≤ -4.2

Question: For A16G U33G U55A C95U, which “polymerase ribozyme fitness (log ratio)” value is on record?
Answer: -3.89

Question: Which “polymerase ribozyme fitness (log ratio)” value does the source give for A16G A52C U53A G92C U109G A137C U139G here?
Answer: ≤ -4.2
